Changes are numbered by the printed parent chain. Numbers in names are those of the source.
Columns and labels:
[1] = system: trypsin; details: literature report; cited from earlier work
[2] = system: kallikrein; details: literature report; cited from earlier work
[3] = biological target: plasmin (Homo sapiens, UniProt P00747); details: literature report; cited from earlier work
[4] = biological target: T1, Human trypsin (Homo sapiens, UniProt P07477); assay: Human trypsin-inhibiting activity, substrate S-2444; format: biochemical; details: purified products, concentration as U/ml bovine trypsin-inhibiting activity based on UTI
T1 construct: purchased Calbiochem
Procedure: The purified sample obtained in Example 1-(5) was dissolved in 100 μl of distilled water. Concentration of this solution was determined based on its bovine trypsin-inhibiting activity using the aforementioned UTI as a standard. The solution was then diluted to various concentration levels with 0.1% BSA/0.2M triethanolamine-HCl buffer (pH 7.8) for the activity measurement. The aforementioned UTI was also diluted in the same manner.
Using the aforementioned synthetic compound S-2444 as a substrate, human trypsin-inhibiting activities of the diluted test samples and the positive control were measured in accordance with the method of Kassell (Kassell B., Methods in Enzymol., vol 19, pp.84-852, 1970) as follows.
Human trypsin (Calbiochem) was dissolved in 0.001M HCl to a concentration of 1,000 SU/ml and the solution was further diluted with 0.1% BSA/0.2M triethanolamine-HCl buffer (pH 7.8) to prepare 1.25 SU/ml of trypsin solution. 2 mM solution of S-2444 was prepared by dissolving it in distilled water.
Next, 100 μl of the test sample or positive control was mixed with 100 μl of the trypsin solution. After incubation at 37° C. for 10 minutes, 50 μl of the S-2444 solution was added to the mixture to start the reaction. The reaction was carried out at 37° C. for 20 minutes and then stopped by adding 50 μl of 50% acetic acid solution to the reaction mixture. Thereafter, absorbance at 405 nm was measured using a spectrophotometer.
In this instance, in order to eliminate absorbance of various solutions in the reaction mixture, a blank solution was prepared by mixing 100 μl of the trypsin solution with 50 μl of 50% acetic acid and then with 100 μl of each test sample or the positive control and with 50 μl of the S-2444 solution.
In this figure, human trypsin remaining activity was expressed by percentage based on the absorbance of a control reaction mixture in which 100 μl of 0.1% BSA/0.2M triethanolamine-HCl buffer (pH 7.8) was used instead of the test sample or the positive control.

[5] = biological target: FXa (Homo sapiens, UniProt P00742); assay: Human FXa-inhibiting activity, substrate S-2222; format: biochemical; design: purchased American Diagnostica Inc; details: purified products, FIG. 25 and FIG. 26
Procedure: The purified sample obtained in Example 1-(5) was dissolved in 100 μl of distilled water. Concentration of this solution was determined based on its bovine trypsin-inhibiting activity using the aforementioned UTI as a standard. The solution was then diluted to various concentration levels with 0.1% BSA/150 mM NaCl/5 mM CaCl2 /50 mM Tris-HCl buffer (pH 8.3) for use in the activity measurement. The UTI was also diluted in the same manner. Using a synthetic compound S-2222 (Daiichi Pure Chemicals Co., Ltd.) as a substrate, human FXa-inhibiting activities of the diluted test samples and the positive control were measured in accordance with the method of Ohno et al. (Ohno,H. et al., Thromb. Res., vol.19, pp.579-588, 1980) as follows.
Human FXa (American Diagnostica Inc.) was dissolved in distilled water to a concentration of 10 PEU/ml and the solution was further diluted with 0.1% BSA/150 mM NaCl/5 mM CaCl2 /50 mM Tris-HCl buffer (pH 8.3) to prepare 0.1 PEU/ml of FXa solution. 4 mM solution of S-2222 was prepared by dissolving it in distilled water and the solution was further diluted with 0.1% BSA/150 mM NaCl/5 MM CaCl2 /50 mM Tris-HCl buffer (pH 8.3) to obtain 2 mM solution of S-2222.
Next, 25 μl of the test sample or positive control was mixed with 100 μl of 0.1% BSA/150 mM NaCl/5 mM CaCl2 /50 mM Tris-HCl buffer (pH 8.3) and 25 μl of the FXa solution. After incubation at 37° C. for 10 minutes, 100 μl of the S-2222 solution was added to the mixture to start the reaction. The reaction was carried out at 37° C. for 30 minutes and then stopped by adding 50 μl of 50% acetic acid solution to the reaction mixture. Thereafter, absorbance at 405 nm was measured using a spectrophotometer.
In this instance, in order to eliminate absorbance of various solutions in the reaction mixture, a blank solution was prepared by mixing 25 μl of the FXa solution with 50 μl of 50% acetic acid and then with 25 μl of each test sample or the positive control, 100 μl of 0.1% BSA/150 mM NaCl/5 mM CaCl2 /50 mM Tris-HCl buffer (pH 8.3) and with 100 μl of the S-2222 solution.
In this figure, human FXa remaining activity was expressed by percentage based on the absorbance of a control reaction mixture in which 25 μl of 0.1% BSA/150 mM NaCl/5 mM CaCl2 /50 mM Tris-HCl buffer (pH 8.3) was used instead of the test sample or the positive control.

Chain of FXa (P00742 235-488 limits assumed): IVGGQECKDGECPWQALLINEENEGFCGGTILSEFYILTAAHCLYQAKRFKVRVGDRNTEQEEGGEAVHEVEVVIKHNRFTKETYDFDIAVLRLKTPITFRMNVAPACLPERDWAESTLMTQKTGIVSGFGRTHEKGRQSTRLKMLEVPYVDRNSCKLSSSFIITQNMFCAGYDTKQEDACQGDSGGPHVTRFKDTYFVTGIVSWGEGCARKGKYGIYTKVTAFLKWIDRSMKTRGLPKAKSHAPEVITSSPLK
Chain of FXa (P00742 41-179 partner limits assumed): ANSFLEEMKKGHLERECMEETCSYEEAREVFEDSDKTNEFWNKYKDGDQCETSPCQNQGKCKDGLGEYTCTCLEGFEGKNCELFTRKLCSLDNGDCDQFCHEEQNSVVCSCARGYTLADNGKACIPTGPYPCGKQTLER
Chain of plasmin (P00747 581-810 limits assumed, species assumed): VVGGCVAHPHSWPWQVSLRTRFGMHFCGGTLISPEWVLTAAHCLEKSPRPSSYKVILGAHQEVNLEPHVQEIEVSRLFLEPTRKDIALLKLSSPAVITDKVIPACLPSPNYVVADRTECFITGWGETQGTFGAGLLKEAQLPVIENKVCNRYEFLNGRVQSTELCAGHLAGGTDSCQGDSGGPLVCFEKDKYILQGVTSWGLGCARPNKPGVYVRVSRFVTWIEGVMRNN
Chain of plasmin (P00747 97-580 partner limits assumed, species assumed): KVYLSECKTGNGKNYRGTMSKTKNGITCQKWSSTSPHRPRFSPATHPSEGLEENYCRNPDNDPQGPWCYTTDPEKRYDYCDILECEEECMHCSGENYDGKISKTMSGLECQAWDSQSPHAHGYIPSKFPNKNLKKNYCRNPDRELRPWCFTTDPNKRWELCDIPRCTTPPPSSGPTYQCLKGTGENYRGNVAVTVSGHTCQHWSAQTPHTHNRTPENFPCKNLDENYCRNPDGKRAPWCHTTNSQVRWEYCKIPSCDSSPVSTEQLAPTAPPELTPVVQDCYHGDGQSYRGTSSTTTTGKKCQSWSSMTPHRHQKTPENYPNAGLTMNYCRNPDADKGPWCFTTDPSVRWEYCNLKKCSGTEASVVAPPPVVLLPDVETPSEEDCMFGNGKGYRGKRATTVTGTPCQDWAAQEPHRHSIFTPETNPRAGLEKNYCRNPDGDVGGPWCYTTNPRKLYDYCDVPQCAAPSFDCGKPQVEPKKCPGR

aprotinin [reference compound]
inhibition of trypsin [1]: inhibits
inhibition of kallikrein [2]: inhibits
inhibition of plasmin [3]: inhibits

B1: Y46E: polypeptide defined by the amino acid sequence of formula 5, purified from culture supernatant of E. coli JE5505 (pM575B) (protein)
chain: TVAACNLPIVRGPCRAFIQLWAFDAVKGKCVLFPYGGCQGNGNKFESEKECREYCGVPGDGDEELLRFSN
human trypsin-inhibiting activity compared with polypeptides TN70 and TL66 [4]: almost the same
human FXa-inhibiting activity relative to polypeptide TN70 [5]: about 7 times

B2: Q19K: polypeptide defined by the amino acid sequence of formula 6, purified from culture supernatant of E. coli JE5505 (pM576) (protein)
chain: B1 chain with T1D, V2D, Q19K, E46Y
human trypsin-inhibiting activity compared with polypeptides TN70 and TL66 [4]: almost the same
human FXa-inhibiting activity relative to polypeptide TN70 [5]: about 5 times

Source: US5792629A, “Isolated DNA encoding novel protease inhibitory polypeptide” (Mochida Pharmaceutical Co., Ltd., priority 1990, dated 1998)
